# Measurements as given in the supplement of paper PMC7877785.
# ± gives the uncertainty stated by the source.
# Assay: self-splicing fitness, log relative to wild type (ln ratio); higher = more splicing; Tetrahymena group I intron in knt gene, E. coli kanamycin selection, DiMSum; sequences stand for … in CUCUCU…GGAGGGAAAAGUUAUCAGGCAUGCACCUGGUAGCUAGUCUUUAAACCAAUAGAUUGCAUCGGUUUAAAAGGCAAGACCGUCAAAUUGCGGGAAAGGGGUCAACAGCCGUUCAGUACCAAGUCUCAGGGGAAACUUUGAGAUGGCCUUGCAAAGGGUAUGGUAAUAAGCUGACGGACAUGGUCCUAACCACGCAGCCAAGUCCUAAGUCAACAGAUCUUCUGUUGAUAUGGAUGCAGUUCACAGACUAAAUGUCGGUCGGGGAAGAUGUAUUCUUCUCAUAAGAUAUAGUCGGACCUCUCCUUAAUGGGAGCUAGCGGAUGAAGUGAUGCAACACUGGAGCCGCUGGGAACUAAUUUGUAUGCGAAAGUAUAUUGAUUAGUUUUGGAGUACUCGUGGUCG
# Summary of the method: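 A randomised library covering all eight P1ex-region intron nucleotides was built with the intron in the knt kanamycin-resistance gene on pET-22b(+) and held in E. coli BL21(DE3). Cells were grown overnight at 37°C or 30°C on LB agar, with or without 25 μg/mL kanamycin, plus 100 μg/mL carbenicillin, 50 μM IPTG and 0.2% rhamnose, and pooled colonies were amplicon-sequenced on an Illumina HiSeq 2500. DiMSum fitness is the error-weighted combination of wild-type-normalised replicate fold changes, kanamycin versus none.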
Sequence,self-splicing fitness (ln) (30 °C),self-splicing fitness (ln) (37 °C)
AUCCAGCAAUAUUACGGAUG,-2.21 ± 0.094,-1.68 ± 0.12
AGGGAGCAAUAUUACGCCUA,-1.43 ± 0.26,-1.68 ± 0.21
CAGAAGCAAUAUUACGGCAG,-0.0496 ± 0.063,0.33 ± 0.083
CGGUAGCAAUAUUACGCAGU,-4.22 ± 0.22,-2.63 ± 0.16
CUUCAGCAAUAUUACGCGUA,-2.92 ± 0.18,-2.46 ± 0.17
ACUAAGCAAUAUUACGCUCC,-1.24 ± 0.096,-0.322 ± 0.13
AAACAGCAAUAUUACGUCAG,-3.36 ± 0.12,-2.41 ± 0.12
AGGCAGCAAUAUUACGUCUC,-4.52 ± 0.23,-2.03 ± 0.14
CUAAAGCAAUAUUACGCUCC,-3.15 ± 0.29,-2.29 ± 0.35
CUGCAGCAAUAUUACGUAAU,-4.74 ± 0.2,-2.04 ± 0.16
CCACAGCAAUAUUACGGUUG,-1.72 ± 0.047,-0.701 ± 0.058
UAAGAGCAAUAUUACGGUCG,-2.81 ± 0.16,-1.85 ± 0.15
CGAGAGCAAUAUUACGCGAG,-2.82 ± 0.19,-1.88 ± 0.22
CUAAAGCAAUAUUACGAUUU,-4.23 ± 0.28,-2.46 ± 0.32
GGUGAGCAAUAUUACGGCGG,-3.44 ± 0.23,-1.73 ± 0.35
UUUAAGCAAUAUUACGCUAC,-3.5 ± 0.32,
GCCUAGCAAUAUUACGCGGG,-1.74 ± 0.17,-3.1 ± 0.43
AUCAAGCAAUAUUACGCUUU,-3.57 ± 0.15,-2.31 ± 0.12
CUGGAGCAAUAUUACGGCUC,-2.58 ± 0.3,
UUAAAGCAAUAUUACGACGA,0.0585 ± 0.12,0.0349 ± 0.12
UCAUAGCAAUAUUACGGCCG,-0.395 ± 0.15,0.157 ± 0.16
UCCCAGCAAUAUUACGAGGC,-2.23 ± 0.14,-0.738 ± 0.14
GCUUAGCAAUAUUACGCAAG,,-2.44 ± 0.34
AAUAAGCAAUAUUACGCUGU,-2.61 ± 0.23,-1.92 ± 0.22
UAAAAGCAAUAUUACGCUCC,-2.04 ± 0.46,-0.325 ± 0.48

Sequence,self-splicing fitness (ln) (30 °C),self-splicing fitness (ln) (37 °C)
AGUGAGCAAUAUUACGCAGA,,-1.35 ± 0.28
CUUAAGCAAUAUUACGUCUC,-3.75 ± 0.33,-2.11 ± 0.27
AGUUAGCAAUAUUACGAAAC,,-0.856 ± 0.39
GACAAGCAAUAUUACGUGCA,-0.912 ± 0.06,0.0273 ± 0.077
GUACAGCAAUAUUACGAGCG,-2.59 ± 0.11,-0.624 ± 0.098
GAAAAGCAAUAUUACGCCCU,0.325 ± 0.12,-0.233 ± 0.14
GGGCAGCAAUAUUACGCUUG,-0.914 ± 0.088,0.22 ± 0.13
GGGUAGCAAUAUUACGGGCA,-0.435 ± 0.25,-0.58 ± 0.26
UAAAAGCAAUAUUACGGAGU,-3.65 ± 0.2,-2.45 ± 0.19
UCGCAGCAAUAUUACGUCUC,,-1.97 ± 0.27
GCUGAGCAAUAUUACGCGCA,-1.72 ± 0.4,
UUCCAGCAAUAUUACGUAAA,-0.607 ± 0.086,0.616 ± 0.12
GCCGAGCAAUAUUACGUAGA,-2.74 ± 0.13,-2.07 ± 0.14
CCACAGCAAUAUUACGUACG,-0.647 ± 0.047,-0.02 ± 0.063
CAUCAGCAAUAUUACGCCCU,-2.55 ± 0.36,-1.54 ± 0.43
CCGUAGCAAUAUUACGCGGC,-2.94 ± 0.19,-2.51 ± 0.27
CAUAAGCAAUAUUACGAUUG,-2.62 ± 0.095,-1.27 ± 0.11
UAGAAGCAAUAUUACGGUCG,-0.229 ± 0.1,0.153 ± 0.14
ACCAAGCAAUAUUACGUUUA,-2.41 ± 0.12,-1.82 ± 0.11
AGCGAGCAAUAUUACGGGAA,,-1.86 ± 0.27
UUGCAGCAAUAUUACGUCUG,-3.23 ± 0.16,-2.32 ± 0.18
CAGCAGCAAUAUUACGUAUU,-3.51 ± 0.25,-2.23 ± 0.22
AGAGAGCAAUAUUACGUGUA,-2.73 ± 0.3,-2.78 ± 0.32
GCUCAGCAAUAUUACGACCC,-0.644 ± 0.14,0.378 ± 0.19
AUAAAGCAAUAUUACGCACU,0.366 ± 0.11,0.662 ± 0.11
